The values below come from patent US20180185504A1 (Regeneron, published 2018).

As usually defined, the Kd is the constant that tells how readily two partners part at equilibrium. A low value points to higher affinity. The koff is the rate constant with which the complex falls apart. Low values mean slow dissociation, high ones fast dissociation. One may read the kon as the rate constant with which the complex forms.

Where a chain is given by its changes, count along the chain named. In names and notes the source's numbering stands.

The target of test [1] is T1, human PRLR on cells (endogenous on T47D, T47D#11, MCF7); introduced in HEK293/hPRLR/STAT5-Luc, 293/hPRLR, … (human, UniProt P16471 25-622).
T1 construct: no tag is stated for these lines; also called prolactin receptor
T1 sequence: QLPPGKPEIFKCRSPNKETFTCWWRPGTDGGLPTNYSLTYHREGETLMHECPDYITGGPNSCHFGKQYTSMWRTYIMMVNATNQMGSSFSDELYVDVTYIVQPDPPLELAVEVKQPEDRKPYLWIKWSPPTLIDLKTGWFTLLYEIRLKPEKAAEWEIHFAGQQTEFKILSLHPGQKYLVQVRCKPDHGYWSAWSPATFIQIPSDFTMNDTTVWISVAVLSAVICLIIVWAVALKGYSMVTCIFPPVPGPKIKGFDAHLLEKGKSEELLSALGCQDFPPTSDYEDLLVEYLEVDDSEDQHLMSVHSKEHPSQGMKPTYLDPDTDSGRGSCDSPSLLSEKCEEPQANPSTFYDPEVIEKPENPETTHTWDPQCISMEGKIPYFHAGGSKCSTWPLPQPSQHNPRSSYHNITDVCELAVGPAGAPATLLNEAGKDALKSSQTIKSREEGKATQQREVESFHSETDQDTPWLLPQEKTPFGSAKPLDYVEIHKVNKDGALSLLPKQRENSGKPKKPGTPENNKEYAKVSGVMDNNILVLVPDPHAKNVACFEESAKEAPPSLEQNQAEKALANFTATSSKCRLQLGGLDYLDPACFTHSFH
As to the kind of experiment: FACS on T47D cells.

Test [2] concerns the target T1, human PRLR on cells (endogenous on …). As to the kind of experiment: cell-based or functional assay.
The target is the same in test [3]. Description: cell-based or functional assay. This is another data set of the same source.
For test [4], the target named is T2, mouse PRLR construct with an HA tag on HEK293/mPRLR cells (mouse, UniProt Q08501 20-608).
T2 construct: whole, on cells; stably transfected into HEK293
T2 sequence (looked up): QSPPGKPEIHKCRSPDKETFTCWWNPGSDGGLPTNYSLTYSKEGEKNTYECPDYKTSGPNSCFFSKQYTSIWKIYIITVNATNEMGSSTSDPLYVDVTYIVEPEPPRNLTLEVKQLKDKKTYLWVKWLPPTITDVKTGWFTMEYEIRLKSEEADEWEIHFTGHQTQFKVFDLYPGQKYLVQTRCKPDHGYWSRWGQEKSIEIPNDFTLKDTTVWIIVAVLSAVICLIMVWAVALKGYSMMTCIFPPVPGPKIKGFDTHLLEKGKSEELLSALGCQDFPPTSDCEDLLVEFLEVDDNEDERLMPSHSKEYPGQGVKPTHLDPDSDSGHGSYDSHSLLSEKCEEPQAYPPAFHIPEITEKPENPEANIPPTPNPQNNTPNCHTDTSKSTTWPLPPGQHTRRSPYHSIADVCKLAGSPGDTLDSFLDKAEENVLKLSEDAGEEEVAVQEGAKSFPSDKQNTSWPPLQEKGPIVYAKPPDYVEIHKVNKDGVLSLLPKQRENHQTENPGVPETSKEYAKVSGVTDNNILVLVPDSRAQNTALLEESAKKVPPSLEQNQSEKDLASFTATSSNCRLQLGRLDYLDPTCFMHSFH
As to the kind of experiment: FACS on HEK293/mPRLR cells.

Test [5] concerns the target T3, hPRLR.mmh (soluble monomeric human PRLR) (human).
T3 construct: soluble monomeric PRLR protein
T3 chain: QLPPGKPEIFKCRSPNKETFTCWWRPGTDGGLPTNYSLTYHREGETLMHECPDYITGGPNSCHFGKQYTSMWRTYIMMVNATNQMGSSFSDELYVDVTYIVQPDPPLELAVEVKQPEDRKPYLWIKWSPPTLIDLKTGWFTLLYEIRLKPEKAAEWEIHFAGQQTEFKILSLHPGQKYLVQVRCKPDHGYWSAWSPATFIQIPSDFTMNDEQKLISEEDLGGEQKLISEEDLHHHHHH
Description: SPR (Biacore), antibody capture, 37 C. The protocol: (§1) Measurements were conducted on a T200 Biacore instrument. Kinetic association (kₐ) and dissociation (kd) rate constants were determined by processing and fitting the data to a 1:1 binding model using Scrubber 2.0 curve fitting software.
For orientation: SPR reads the build-up and loss of mass on a sensor chip optically.

Test [6] has as its target T4, hPRLR.mFc (soluble dimeric human PRLR) (human).
T4 construct: dimeric PRLR construct
T4 chain: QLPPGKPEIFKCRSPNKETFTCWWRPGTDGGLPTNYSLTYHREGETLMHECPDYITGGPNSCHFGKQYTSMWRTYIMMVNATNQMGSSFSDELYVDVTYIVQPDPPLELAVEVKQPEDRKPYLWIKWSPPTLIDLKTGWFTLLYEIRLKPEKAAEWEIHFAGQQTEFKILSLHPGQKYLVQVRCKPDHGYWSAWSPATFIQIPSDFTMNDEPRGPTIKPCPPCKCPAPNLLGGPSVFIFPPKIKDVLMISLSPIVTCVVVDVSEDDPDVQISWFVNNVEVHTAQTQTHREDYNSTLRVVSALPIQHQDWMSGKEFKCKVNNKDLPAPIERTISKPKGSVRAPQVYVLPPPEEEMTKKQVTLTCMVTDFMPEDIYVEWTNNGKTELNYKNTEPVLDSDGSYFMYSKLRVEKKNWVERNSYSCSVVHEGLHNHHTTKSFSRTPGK
As to the kind of experiment: SPR (Biacore), antibody capture, 37 C. On the procedure:
as §1

Test [7] concerns the target T5, mfPRLR.mmh (soluble monomeric macaca fascicularis PRLR) (macaca fascicularis).
T5 construct: soluble monomeric PRLR protein; also called macaca fascicularis (mf) PRLR.mmh; monkey PRLR
T5 chain: T3 chain with I76V, A110T, I125M, I158T, T207I
As to the kind of experiment: SPR (Biacore), antibody capture, 37 C. The protocol: as §1

B1: H1H6793P (antibody, human IgG1, V domains shown)
VH: EVQLVESGGGLVQPGGSLRLSCAASGFSFSIYAMSWFRQAPGKGLEWVSAINGRGDGTHYADSVKGRFTISRDNSKTTLYLQMSSLRAEDTAVYYCAKPVMSTNGFDIWGQGTMVTVSS
VL: DIQMTQSPSTLSASVGDRVTITCRASQSISSWLAWYQLKPGKAPKLLIYKASNLESGVPSRFSGSGSGTEFTLTISSLQPDDFATYYCQQYNIYWTFGQGTKVEIK
notes: human IgG1 Fc (H1H)
As to B1, in test [1], the “FACS Cell Binding (Fold Above Background)” value was found to be 43 fold. Besides, the “% Internalization relative to Control I (T47D cells, imaging)” value (from here on “% Internalization relative to Control I”) in test [2] amounted to 180%. In addition, the “Percent Blocking at 100 nM Antibody (STAT5-Luc reporter)” value (“Percent Blocking at 100 nM Antibody” below) in test [3] amounted to 65%. Further, the “FACS Cell Binding (Fold Above Background)” value in test [4] was 2 fold. For the same molecule, in test [5], the Kd was determined as 3.02 nM, the “T 1/2” value stood at 11 min, the koff is 0.00102 s⁻¹ and the kon is 339000 M⁻¹ s⁻¹. Moreover, in test [6], the Kd came out at 0.347 nM, the “T 1/2” value was determined as 81 min, the dissociation rate constant (koff) stood at 0.000142 s⁻¹ and the kon stood at 410000 M⁻¹ s⁻¹. In test [7], the Kd came to 4.59 nM, the “T 1/2” value is 11 min, the koff was 0.00107 s⁻¹ and the kon was found to be 233000 M⁻¹ s⁻¹.

B2: H1H6765P (antibody, human IgG1, V domains shown)
VH: EVQLVESGGGVVRPGGSLRLSCVGSGFSFDDHGMNWVRQGPGKGLEWVSGFNWNGGSTNYAESVKGRFTISRDNARNSLFLQMNSLRAEDTALYYCVRGRSGWFNDAFDVWGPGTMVTVSS
VL: EIVLTQSPGTLSLSPGERATLSCRASQTINSNYLAWYRQKPGQTPRLLIYGTSSRATGIPDRFSGSGSGTDFSLTISRLEPEDFAVFYCQQYAGLPTFGPGTKVDIK
notes: human IgG1 Fc (H1H)
As to B2, the “FACS Cell Binding (Fold Above Background)” value in test [1] turned out to be 40 fold. In test [2], the “% Internalization relative to Control I” value is 186%. In addition, in test [3], the “IC50 of Blocking 5 nM PRL [M] (STAT5-Luc reporter, HEK293/hPRLR/STAT5-Luc cells)” value came out at 3.3e-11 M and the “Percent Blocking at 100 nM Antibody” value worked out at 100%. The “FACS Cell Binding (Fold Above Background)” value in test [4] came to 1 fold. In test [5], binding was characterised by a dissociation constant (Kd) of 0.292 nM, the “T 1/2” value is 32 min, the koff amounted to 0.000366 s⁻¹ and the on-rate constant (kon) amounted to 1.25e+06 M⁻¹ s⁻¹. In test [6], the Kd is 0.128 nM, the “T 1/2” value stood at 112 min, the dissociation rate constant (koff) turned out to be 0.000103 s⁻¹ and the kon stood at 801000 M⁻¹ s⁻¹. In test [7], binding was characterised by a dissociation constant (Kd) of 0.0504 nM, the “T 1/2” value was determined as 215 min, the koff was 5.37e-05 s⁻¹ and the kon was 1.06e+06 M⁻¹ s⁻¹.

B3: H1H6762P (antibody, human IgG1, V domains shown)
VH: QVQLVESGGGVVQPGRSLRLSCAASGFTFSHYGMVWVRQPPGKGLEWVALISFDGTTKYYADSVKGRFTISRDNSKNTLYLQMNSLRAEDTAVYFCVGAIAAAAFDLWGRGTLVTVSS
VL: EIVMTQSPATLSVSPGERATLSCRASQSVSSDLAWYQQKPGQAPRLLIYSASARATGIPARFTGSGSGTDFTLTISSLQSEDFAVYYCQQYNNWPMYTFGQGTKLEIK
notes: human IgG1 Fc (H1H)
Regarding B3, in test [1], the “FACS Cell Binding (Fold Above Background)” value worked out at 38 fold. Moreover, in test [2], the “% Internalization relative to Control I” value is 186%. In addition, in test [3], the “IC50 of Blocking 5 nM PRL [M] (STAT5-Luc reporter, HEK293/hPRLR/STAT5-Luc cells)” value was determined as 2.19e-11 M and the “Percent Blocking at 100 nM Antibody” value turned out to be 100%. The “FACS Cell Binding (Fold Above Background)” value in test [4] was found to be 2 fold. Further, in test [5], the affinity, expressed as Kd, was 0.48 nM; the “T 1/2” value is 25 min; the koff was 0.000455 s⁻¹; the kon came out at 948000 M⁻¹ s⁻¹. In addition, in test [6], binding was put at a Kd of 0.128 nM, the “T 1/2” value was determined as 112 min, the koff is 0.000103 s⁻¹ and the kon was 801000 M⁻¹ s⁻¹. Besides, in test [7], the equilibrium dissociation constant (Kd) was 0.823 nM, the “T 1/2” value stood at 21 min, the koff was determined as 0.000558 s⁻¹ and the kon is 679000 M⁻¹ s⁻¹.
